According to article doi:10.1101/334433 (bioRxiv, 2018):

Target: T1, GST-IRF4 (human, UniProt Q15306 1-451)
T1 sequence (looked up): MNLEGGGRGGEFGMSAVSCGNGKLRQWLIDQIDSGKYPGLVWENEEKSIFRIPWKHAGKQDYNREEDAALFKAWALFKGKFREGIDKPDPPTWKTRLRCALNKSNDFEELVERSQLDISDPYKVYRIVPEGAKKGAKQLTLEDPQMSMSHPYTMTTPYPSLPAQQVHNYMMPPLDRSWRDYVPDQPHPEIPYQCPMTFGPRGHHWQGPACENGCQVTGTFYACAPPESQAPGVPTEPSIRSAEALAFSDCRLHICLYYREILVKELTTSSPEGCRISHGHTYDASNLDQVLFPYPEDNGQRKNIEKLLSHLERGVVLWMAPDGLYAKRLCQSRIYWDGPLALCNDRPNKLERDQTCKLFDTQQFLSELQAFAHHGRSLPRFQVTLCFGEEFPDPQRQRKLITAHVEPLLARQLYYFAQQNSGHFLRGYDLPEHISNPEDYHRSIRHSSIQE
Assay: pull-down

B1: purified His-Peli1 (enzyme, human, UniProt Q96FA3 1-418, looked up)
chain: MFSPDQENHPSKAPVKYGELIVLGYNGSLPNGDRGRRKSRFALFKRPKANGVKPSTVHIACTPQAAKAISNKDQHSISYTLSRAQTVVVEYTHDSNTDMFQIGRSTESPIDFVVTDTVPGSQSNSDTQSVQSTISRFACRIICERNPPFTARIYAAGFDSSKNIFLGEKAAKWKTSDGQMDGLTTNGVLVMHPRNGFTEDSKPGIWREISVCGNVFSLRETRSAQQRGKMVEIETNQLQDGSLIDLCGATLLWRTAEGLSHTPTVKHLEALRQEINAARPQCPVGFNTLAFPSMKRKDVVDEKQPWVYLNCGHVHGYHNWGNKEERDGKDRECPMCRSVGPYVPLWLGCEAGFYVDAGPPTHAFSPCGHVCSEKTTAYWSQIPLPHGTHTFHAACPFCAHQLAGEQGYIRLIFQGPLD
binding result: binds
